The text below walks through data of US20240174744A1 (SCIRHOM, published 2024).

Numbering of substitutions follows the chain as printed.

The target in assay [1] is T1, miR2-FL-WT-T7 (mouse iRhom2 full length wild type C-terminally tagged with 3 consecutive copies of the T7 … (mouse, UniProt Q80WQ6 1-827)).
T1 construct: also called mouse iRhom2 variant expressed by MEF-DKO-miR2-FL-WT-T7 cells
T1 sequence: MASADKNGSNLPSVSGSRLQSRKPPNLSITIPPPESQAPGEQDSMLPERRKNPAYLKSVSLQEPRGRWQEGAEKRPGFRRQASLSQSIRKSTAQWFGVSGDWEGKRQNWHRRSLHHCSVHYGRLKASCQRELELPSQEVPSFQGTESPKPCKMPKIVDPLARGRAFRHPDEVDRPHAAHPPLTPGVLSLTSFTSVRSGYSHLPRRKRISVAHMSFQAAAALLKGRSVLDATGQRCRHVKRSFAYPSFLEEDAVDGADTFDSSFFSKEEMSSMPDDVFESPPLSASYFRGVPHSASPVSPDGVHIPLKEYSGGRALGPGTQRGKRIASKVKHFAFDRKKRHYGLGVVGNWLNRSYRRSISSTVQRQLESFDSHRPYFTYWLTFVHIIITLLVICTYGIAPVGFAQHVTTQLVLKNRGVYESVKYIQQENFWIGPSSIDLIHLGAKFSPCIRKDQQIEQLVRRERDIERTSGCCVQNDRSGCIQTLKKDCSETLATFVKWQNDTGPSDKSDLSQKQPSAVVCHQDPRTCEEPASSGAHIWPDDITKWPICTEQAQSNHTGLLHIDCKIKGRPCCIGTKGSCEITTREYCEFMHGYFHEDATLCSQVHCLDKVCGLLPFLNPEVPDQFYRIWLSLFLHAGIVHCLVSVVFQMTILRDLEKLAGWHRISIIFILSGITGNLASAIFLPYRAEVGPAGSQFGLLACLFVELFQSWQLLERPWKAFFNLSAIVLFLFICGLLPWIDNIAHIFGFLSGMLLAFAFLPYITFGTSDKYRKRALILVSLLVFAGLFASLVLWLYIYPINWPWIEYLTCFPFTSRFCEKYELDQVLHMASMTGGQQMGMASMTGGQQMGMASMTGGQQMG
In words: FACS on cells of the row mouse iR2 wild type.

In assay [2] the target is T2, hiR1-FL-WT-T7 (human iRhom1 full length wild type C-terminally tagged with 3 consecutive copies of the T7 … (human, UniProt Q96CC6 1-855)).
T2 construct: also called human iRhom1 variant expressed by MEF-DKO-hiR1-FL-WT-T7 cells
T2 sequence: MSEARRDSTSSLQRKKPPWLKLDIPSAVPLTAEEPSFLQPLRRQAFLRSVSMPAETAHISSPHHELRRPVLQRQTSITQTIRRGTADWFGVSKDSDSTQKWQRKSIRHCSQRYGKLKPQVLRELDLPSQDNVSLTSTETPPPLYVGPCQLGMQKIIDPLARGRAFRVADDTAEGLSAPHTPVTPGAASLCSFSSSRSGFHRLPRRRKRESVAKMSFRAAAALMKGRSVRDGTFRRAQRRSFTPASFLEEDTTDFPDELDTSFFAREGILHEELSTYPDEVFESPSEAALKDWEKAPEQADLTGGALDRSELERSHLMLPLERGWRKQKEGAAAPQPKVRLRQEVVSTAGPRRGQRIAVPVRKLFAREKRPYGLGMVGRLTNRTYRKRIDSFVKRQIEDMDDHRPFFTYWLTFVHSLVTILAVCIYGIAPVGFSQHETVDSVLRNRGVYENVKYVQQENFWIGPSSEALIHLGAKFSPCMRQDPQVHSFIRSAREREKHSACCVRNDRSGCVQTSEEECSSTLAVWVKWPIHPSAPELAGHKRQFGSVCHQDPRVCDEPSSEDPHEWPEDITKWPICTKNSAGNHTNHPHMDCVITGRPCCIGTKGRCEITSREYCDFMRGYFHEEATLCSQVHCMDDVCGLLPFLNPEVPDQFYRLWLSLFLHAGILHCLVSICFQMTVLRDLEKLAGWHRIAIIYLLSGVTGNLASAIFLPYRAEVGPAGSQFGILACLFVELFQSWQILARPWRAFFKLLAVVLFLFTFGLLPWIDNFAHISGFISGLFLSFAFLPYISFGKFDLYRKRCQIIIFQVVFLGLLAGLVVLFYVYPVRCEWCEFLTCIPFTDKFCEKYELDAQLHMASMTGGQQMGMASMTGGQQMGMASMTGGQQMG
In words: FACS on cells of the row human iR1 wild type, vs human iR2 wild type = 100%.

Assay [3] deals with T2, hiR1-FL-WT-T7 (human iRhom1 full length …). Put plainly: FACS on cells of the row human iR1 wild type.
For assay [4], the target named is T3, hiR2-FL-P533-T7 (human iRhom2 full length with deletion of P533, 3 x T7 tag) (human, UniProt Q6PJF5 1-856).
T3 construct: The change is a deletion of one residue, not a substitution
T3 sequence: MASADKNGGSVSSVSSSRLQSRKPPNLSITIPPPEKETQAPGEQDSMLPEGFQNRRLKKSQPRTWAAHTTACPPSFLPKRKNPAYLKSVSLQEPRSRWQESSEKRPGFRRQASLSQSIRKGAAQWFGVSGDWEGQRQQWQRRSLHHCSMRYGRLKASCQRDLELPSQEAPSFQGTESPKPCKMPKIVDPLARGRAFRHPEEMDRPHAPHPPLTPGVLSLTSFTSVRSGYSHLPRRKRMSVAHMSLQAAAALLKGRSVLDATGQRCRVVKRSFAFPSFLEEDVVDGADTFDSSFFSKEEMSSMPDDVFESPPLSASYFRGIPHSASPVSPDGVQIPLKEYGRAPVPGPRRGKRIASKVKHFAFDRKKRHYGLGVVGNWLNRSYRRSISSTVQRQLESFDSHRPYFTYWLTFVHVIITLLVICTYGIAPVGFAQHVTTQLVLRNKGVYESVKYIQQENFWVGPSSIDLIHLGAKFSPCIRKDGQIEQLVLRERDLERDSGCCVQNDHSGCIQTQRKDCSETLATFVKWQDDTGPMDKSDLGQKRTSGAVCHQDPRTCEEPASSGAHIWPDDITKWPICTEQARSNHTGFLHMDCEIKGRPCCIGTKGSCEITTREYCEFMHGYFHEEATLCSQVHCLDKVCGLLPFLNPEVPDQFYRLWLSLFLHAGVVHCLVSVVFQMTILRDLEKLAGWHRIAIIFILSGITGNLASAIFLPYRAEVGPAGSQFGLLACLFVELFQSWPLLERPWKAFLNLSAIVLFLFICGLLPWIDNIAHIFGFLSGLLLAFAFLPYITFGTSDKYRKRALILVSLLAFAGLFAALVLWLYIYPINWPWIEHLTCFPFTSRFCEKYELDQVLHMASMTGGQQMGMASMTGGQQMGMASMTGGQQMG
In words: FACS on cells of the row P533-.

B1: antibody 50 (antibody, V domains shown)
VH: QVQLQQSGAELVRPGASVKVSCKASGYAFSNYLIEWVKQRPGQGLEWIGVINPGSGFTKYNEKFKGKATLTADKSSSTAYMQLSSLTSEDSAVYFCARGLYRAMDYWGQGTSVTVSS
VL: DIQMTQSPASQSASLGESVTITCLASQTIGTWLAWYQQKPGKSPQLLIYAAASLADGVPSRFSGGGSGTKFSFKISSLQAEDFVNYYCQQIYSTPYTFGGGTKLEIK
notes: Mouse IgG, kappa light chain; also called clone #50; purified antibody 50
Consider B1, for which the binding result in assay [1] and in assay [3] was “no binding (tested: 3 µg/ml)” in each case. Moreover, the “grade of loss of binding vs wild type” value in assay [2] is 3 grade (3 => 95% loss of binding vs wild type).

B2: antibody 43 (antibody, V domains shown)
VH: QVALKESGPGILQPSQTLSLTCSFSGFSLSTFGMGVGWIRQSSGKGLEWLANIWWDDDKYYNPALKSRLTISKDASKNQAFLKIANVDTADTATYYCARIGNYGSNYWYFDVWGTGTTVTVSS
VL: QIVLTQSPAIMSASPGERVTMTCSANSRISYMYWYQQKPGSSPRLLIYDTSNLASGVPVRFSGSGSGTSYSLTISRMEAEDAATYNCQQWSSYPLTFGAGTKLELK
notes: Mouse IgG, kappa light chain; also called clone #43
With B2, the binding result in assay [1], in assay [3] and in assay [4] was “no binding (tested: 3 µg/ml)” each time. Besides, the “grade of loss of binding vs wild type” value in assay [2] was 3 grade (3 => 95% loss of binding vs wild type).

B3: antibody 42 (antibody, V domains shown)
VH: B2 VH with A3T, F24L, M34R, S42P, N52H, D58E, A75T, A80V, K83R, G101Q
VL: B2 VL with Q1L, R18K, S24G, N26T, Y33F, L45V, M77V, A82V, N86Y, S91N
notes: Mouse IgG, kappa light chain; also called clone #42; m42
B3: the binding result in assay [1], in assay [3] and in assay [4] was “no binding (tested: 3 µg/ml)” throughout. Further, the “grade of loss of binding vs wild type” value in assay [2] is 3 grade (3 => 95% loss of binding vs wild type).

B4: antibody 5 (antibody, V domains shown)
VH: B2 VH with A3T, S42P, N52H, D58E, P63S, D74A, A75T, G101S, D111N
VL: QVVLTQSPALMSASPGEKVTMTCSAGSSVSCMYWYQQKPGSSPRVLIYDTSNLASGVPARFTGSGSGTSYSLTISRMEAEDAASYYCQQWNSYPLTFGAGTKLELK
notes: Mouse IgG, kappa light chain; also called clone #5; purified antibody 5
As to B4, the binding result in assay [1], in assay [3] and in assay [4] was “no binding (tested: 3 µg/ml)” each time. In addition, the “grade of loss of binding vs wild type” value in assay [2] is 3 grade (3 => 95% loss of binding vs wild type).

B5: antibody 44 (antibody, V domains shown)
VH: B2 VH with A3T, S42P, G44E, N52H, A75T, A80I, A85T, D91E, A98S
VL: QIVLTQSPAVMSASPGEKVTMTCTASSSVYYMYWYQQTPGSSPRLLIYDTSNLASGVPVRFSGSGSGTSYSLTISRMEAEDAATYYCQQWNTYPLTFGAGTKLELK
notes: Mouse IgG, kappa light chain; also called clone #44; m44
With B5, the binding result in assay [1], in assay [3] and in assay [4] was “no binding (tested: 3 µg/ml)” each time. The “grade of loss of binding vs wild type” value in assay [2] is 3 grade (3 => 95% loss of binding vs wild type).

B6: antibody 22 (antibody, V domains shown)
VH: B2 VH with A3T, S42P, N52H, D58E, P63S, D74A, A75T, A80V, G101S, D111N
VL: B4 VL with C31Y, S84T
notes: Mouse IgG, kappa light chain; also called clone #22; m22
Turning to B6, the binding result in assay [1], in assay [3] and in assay [4] was “no binding (tested: 3 µg/ml)” each time. Moreover, the “grade of loss of binding vs wild type” value in assay [2] was 3 grade (3 => 95% loss of binding vs wild type).

B7: antibody 34 (antibody, V domains shown)
VH: QVTLKESGPGILQPSQTLSLTCSFSGFSLSTFSLGVGWIRQSSGKGLEWLAHIWWDDEKYYNPALKSRLTISKDTSKNQVFLKIANVDAADTATYYCARAYYSKSYYALDYWGQGTSVTVSS
VL: DIQMTQSPSSLSASLGERVSLTCRASQEISGYLSWLQQKPDGTIKRLIYAASTLDSGVPKRFSGSRSGSDYSLAISSLESEDFADYYCLQYANFPFTFGSGTKLEIK
notes: Mouse IgG, kappa light chain; also called clone #34; m34
Take B7: the binding result in assay [1], in assay [3] and in assay [4] was “no binding (tested: 3 µg/ml)” throughout. In assay [2], the “grade of loss of binding vs wild type” value is 3 grade (3 => 95% loss of binding vs wild type).

B8: antibody 16 (antibody, V domains shown)
VH: QVTLKESGPGILQPSQTLSLTCSFSGFSLSTFALGVGWIRQPSGRGLEWLAHIWWDDDKYYNPALKSRLTISKDTSKNHVFLKIANVDTADTATYYCARITTYYYGMDYWGQGTSVTVSS
VL: DIVLSQSPATLSVTPGDSVSLFCRASQSIGNHLHWYQQESHASPRLLIKYASQSISGIPSRFSGSGSGTDFTLSINSVETEDFGMYFCQQSYNWPLTFGAGTKLELK
notes: Mouse IgG, kappa light chain; also called clone #16; m16
On to B8, for which the binding result in assay [1], in assay [3] and in assay [4] was “no binding (tested: 3 µg/ml)” in each case. The “grade of loss of binding vs wild type” value in assay [2] was 3 grade (3 => 95% loss of binding vs wild type).

B9: antibody 3 (antibody, V domains shown)
VH: QVTLKESGPGILQPSQTLSLTCSFSGFSLTTFAMGIGWVRQPSGKGLEWLAHIWWDGEKYNNPVLKSRLTISKDTSKNQVFLRIANVDTPDTATYYCARISSIYYIIDNWGQGTSVTVSS
VL: B8 VL with S5T, D17H, F22S, G30S, H32N, Q38K, E39K, A42E, A51V
notes: Mouse IgG, kappa light chain; also called clone #3; purified antibody 3
With B9, the “grade of loss of binding vs wild type” value in assay [2] is 3 grade (3 => 95% loss of binding vs wild type).
